Results from patent US9284541B2, “Methods and compositions for protein labeling using lipoic acid ligases” (Massachusetts Institute of Technology, priority 2007, dated 2016).

What was measured:
LAP-YFP fusion protein = assay: Orthogonal resorufin and 7-hydroxycoumarin labeling in living HEK 293T cells; details: 5 μM resorufin-AM2 and 20 μM 7-hydrozycoumarin-AM2, 10 minutes
Protocol: After being rinsed with DPBS or HBSS, the transfected cells were incubated with 5 μM resorufin-AM2 and 20 μM 7-hydrozycoumarin-AM2 at 37° C. for 10 minutes.
The cells were washed with the culture medium, cultured at 37° C. for 30 minutes, and observed under a fluorescent microscope.

[1] = tested on: LAP peptide (sequence=GFEIDKVWYDLDA); details: 1 μM ligase, 200 μM LAP peptide, 500 μM resorufin-AM2, 30° C., 1 hour
Protocol: These DNA fragments were cloned into expression vectors and expressed in E. coli cells. The ligase activity of the LplA mutants thus prepared in catalyzing formation of resorufin-LAP conjugate was tested as described below. 1 μM Lipoic acid ligase, 200 μM, LAP peptide (sequence=[…]), ligase, 500 μM resorufin-AM2, 2 mM ATP, and 5 mM magnesium acetate were mixed in an Eppendorf tube and incubated at 30° C. for 1 hour. Components in the mixture were analyzed by C18 HPLC and tandem ESI-MS, using 15%→40% acetonitrile linear gradient over 8 minutes containing 0.1% formic acid to resolve resorufin, LAP, and resorufin-LAP conjugate. A mixtures omitting ATP or the lipoic acid ligase was used as a negative control.

FKBP-LAP1 = FKBP-LAP1 (Escherichia coli, UniProt P32099, W38V)
LAP2 [2] = target: T1, LAP2 (Escherichia coli, UniProt P32099, W38V); details: cited from earlier work
LAP2 [3] = target: T1, LAP2; details: coumarin ligation
[4] = tested on: FKBP-LAP1 and FRB-LplAW37V; details: FRB fusions, ID-PRIME labeling of FKBP-LAP1
Protocol: Growth media was then removed and the cells were labeled by applying 20 μM coumarin-AM2 in serum-free DMEM at 37° C. for 10 minutes. Excess coumarin was washed out with three changes of fresh DMEM over 60 minutes at 37° C. Cells were imaged in DPBS. Confocal images were acquired at 60× magnification.

B1: W37V: E. coli LplA single mutant W37V, coumarin ligase (protein)
chain: STLRLLISDSYDPWFNLAVEECIFRQMPATQRVLFLVRNADTVVIGRAQNPWKECNTRRMEEDNVRLARRSSGGGAVFHDLGNTCFTFMAGKPEYDKTISTSIVLNALNALGVSAEASGRNDLVVKTVEGDRKVSGSAYRETKDRGFHHGTLLLNADLSRLANYLNPDKKKLAAKGITSVRSRVTNLTELLPGITHEQVCEAITEAFFAHYGERVEAEIISPNKTPDLPNFAETFARQSSWEWNFGQAPAFSHLLDERFTWGGVELHFDVEKGHITRAQVFTDSLNPAPLEALAGRLQGCLYRADMLQQECEALLVDFPEQEKELRELSAWMAGAVR
modifications: E. coli
LAP-YFP fusion protein
  substrate specificity in cells: only catalyzes conjugate of 7-hydroxycoumarin
[1]
  Yield of resorufin-LAP conjugate: <5%
FKBP-LAP1
  catalytic rate slower than lipoic acid ligation: 22 times
FKBP-LAP1; purified FKBP-LAP1
  kcat for coumarin ligation to LAP1: 0.01 ± 0.001 s⁻¹
FKBP-LAP1; read-out: Km of the enzyme for LAP1, coumarin probe, purified FKBP-LAP1
  Km: 681 ± 168 µM
LAP2 [2]
  reported kcat for coumarin ligation to LAP2: 0.019 s⁻¹
LAP2 [3]
  Kcat for coumarin: 0.019 s⁻¹
[4]
  background versus expression level: increased with expression level
